Source: patent US20180105596A1 (ELSALYS BIOTECH, published 2018)
Changes are numbered by the printed parent chain.

Tests used:
[1] = target: T1, recombinant His-Strep tagged human Tyro3 extracellular domain (human, UniProt Q06418 41-429); test: BLI (Octet K2), IgG on AHC tips, hTyro3 ECD analyte, 1:1 global fit; kon Error 1,63E+03
T1 construct: also called hTyro3 ECD; full Tyro3 ECD
T1 sequence: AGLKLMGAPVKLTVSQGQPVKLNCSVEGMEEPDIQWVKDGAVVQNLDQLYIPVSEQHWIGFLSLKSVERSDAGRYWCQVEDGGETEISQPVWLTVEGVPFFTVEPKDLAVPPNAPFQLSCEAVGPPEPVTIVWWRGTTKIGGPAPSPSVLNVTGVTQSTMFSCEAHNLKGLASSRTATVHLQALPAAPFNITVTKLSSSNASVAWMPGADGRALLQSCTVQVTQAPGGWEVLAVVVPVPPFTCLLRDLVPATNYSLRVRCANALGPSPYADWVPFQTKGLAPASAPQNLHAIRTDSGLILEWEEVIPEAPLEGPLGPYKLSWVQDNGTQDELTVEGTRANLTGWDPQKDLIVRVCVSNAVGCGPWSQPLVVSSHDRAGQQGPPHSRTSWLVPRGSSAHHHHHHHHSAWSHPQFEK
Procedure: (§1) Affinity determinations were performed using biolayer interferometry on an Octet K2 instrument (Pall/ForteBio) equipped with anti-Human Kinetics (AHC) disposable fiber-optic biosensor tips. All experiments were conducted at 30° C. in the recommended Fortebio running buffer (PBS with 0.1% (w/v) bovine serum albumin (BSA) and 0.02% (v/v) Tween_20). This buffer was also used for dilution of ligand (here the antibody) and of the analyte (here the extra cellular domain of human Tyro3 protein). Samples in a 96-well microplates (No. Black polypropylene low binding plates, Greiner Bio-One, Frickenhausen, Germany) were agitated at 1000 rpm. […] Between measurements, the anti-human Tyro3 biosensor surfaces were regenerated by exposing them to 3 cycles of 5 sec in 10 mM glycine, pH 1.5, followed by 5 sec in PBS. Association phase was measured for 300 seconds, dissociation phase depending on the interaction for 300 seconds depending on dissociation step. […] Affinity, association (kon) and dissociation rate constants (koff) for each antibody were calculated applying a 1:1 interaction model fitting global, Rmax linked by sensor) on the ForteBio data analysis software 9.0.

[2] = target: T1, recombinant His-Strep tagged human …; test: BLI (Octet K2), 1:1 global fit; analyte concentration of this kobs not given
Procedure: Affinity determinations were performed using biolayer interferometry on an Octet K2 instrument (Pall/ForteBio) equipped with anti-Human Kinetics (AHC) disposable fiber-optic biosensor tips. All experiments were conducted at 30° C. in the recommended Fortebio running buffer (PBS with 0.1% (w/v) bovine serum albumin (BSA) and 0.02% (v/v) Tween_20). This buffer was also used for dilution of ligand (here the antibody) and of the analyte (here the extra cellular domain of human Tyro3 protein). Samples in a 96-well microplates (No. Black polypropylene low binding plates, Greiner Bio-One, Frickenhausen, Germany) were agitated at 1000 rpm. […] Between measurements, the anti-human Tyro3 biosensor surfaces were regenerated by exposing them to 3 cycles of 5 sec in 10 mM glycine, pH 1.5, followed by 5 sec in PBS. Association phase was measured for 300 seconds, dissociation phase depending on the interaction for 300 seconds depending on dissociation step. All measurements were corrected for baseline drift using the double reference substraction, that is to say by subtracting a control sensor without ligand exposed to each concentration of the extra cellular domain of human Tyro3 protein and a reference well with ligand submitted to running buffer only. Affinity, association (kon) and dissociation rate constants (koff) for each antibody were calculated applying a 1:1 interaction model fitting global, Rmax linked by sensor) on the ForteBio data analysis software 9.0.

[3] = target: T1, recombinant His-Strep tagged human …; test: BLI (Octet K2), IgG on AHC tips, hTyro3 ECD analyte, 1:1 global fit; KD Error 9,68E-10
Procedure: as §1

[4] = target: T1, recombinant His-Strep tagged human …; test: BLI (Octet K2), IgG on AHC tips, hTyro3 ECD analyte, 1:1 global fit; kdis(1/s); kdis Error 6,46E-05
Procedure: as §1

[5] = target: T2, cynomolgus Tyro3 ECD, His-Strep tagged; test: sandwich ELISA, Strep-tagged cynomolgus Tyro3 ECD captured on StrepMAB plate, IgG 3-fold from 3 µg/mL, anti-human IgG1-HRP
T2 construct: also called cyno TYRO3 ECD 8hisstrep
T2 extracellular domain: T1 sequence with V67A, I191V, A309G, R376H
Procedure: [The procedure below names another species; the source lists this species under the same test.] (§2) A double sandwich ELISA was developed. This assay consisted in measuring the binding of the anti-Tyro3 antibodies to be tested on immobilized strep-tagged entire human Tyro3 ECD captured directly on ELISA plate pre-coated with an anti-strep mAb (StrepMAB-Immo coated microplates from IBA biotech). Briefly, the 96 wells of StrepMAB-Immo coated microplate were washed three times with 300 μL of the PBS Tween 0.2% (referred as ELISA washing solution). The capture of an excess of purified strep tagged hTyro3 ECD protein was achieved by a one hour incubation at room temperature. In these experiments, 3 μg of purified protein diluted in PBS, BSA 1% (referred as ELISA diluent solution) were immobilized per well. The wells were washed three times with 300 μL of the washing solution. The non-specific binding sites on the well surface were blocked during 60 min at room temperature with 200 μL/well of blocking solution (PBS, BSA 3%). The wells were washed five times with 300 μL of the washing solution. Then, 100 μl (in duplicates) of the different concentrations of anti-Tyro3 antibodies to be tested diluted in ELISA diluent solution, were added per well and allowed to incubate during 1 hour at room temperature. An Irrelevant control IgG2656 was also added in this experiment. For anti-Tyro3 antibodies in the ScFv format, experiments were performed with 6 concentrations in duplicates (FIG. 3A). For anti-Tyro3 antibodies in the IgG format, experiments were performed with 9 concentrations in duplicates (FIG. 3B). […] For IgGs experiments, starting concentration for first dilution was 3 μg/ml and then dilutions of 3 fold in the ELISA diluent solution were performed. The wells were washed five times with 300 μL of the washing solution. […] The mix was allowed to incubated 60 min at room temperature.

[6] = target: T1, recombinant His-Strep tagged human …; test: sandwich ELISA, Strep-tagged hTyro3 ECD captured on StrepMAB plate, IgG 3-fold from 3 µg/mL, anti-human IgG1-HRP
Procedure: as §2

[7] = target: T1, recombinant His-Strep tagged human …; test: BLI (Octet K2), IgG on AHC tips, hTyro3 ECD analyte, 1:1 global fit; kdis(1/s); kdis Error 9,54E-05
Procedure: as §1

[8] = target: T1, recombinant His-Strep tagged human …; test: BLI (Octet K2), IgG on AHC tips, hTyro3 ECD analyte, 1:1 global fit; KD Error 1,47E-09
Procedure: as §1

[9] = target: T1, recombinant His-Strep tagged human …; test: BLI (Octet K2), IgG on AHC tips, hTyro3 ECD analyte, 1:1 global fit; kon Error 1,05E+03
Procedure: as §1

[10] = target: T3, recombinant human Tyro3 on transfected HEK293 cells (human, UniProt Q06418); test: flow cytometry, 1 µg IgG per 5E5 live HEK293 cells, PE anti-human lambda
T3 construct: membrane receptor on HEK293 cells; untransfected HEK293 cells (endogenous Tyro3) serve as comparison; also called Tyro3-transfected cells
T3 sequence (receptor, looked up): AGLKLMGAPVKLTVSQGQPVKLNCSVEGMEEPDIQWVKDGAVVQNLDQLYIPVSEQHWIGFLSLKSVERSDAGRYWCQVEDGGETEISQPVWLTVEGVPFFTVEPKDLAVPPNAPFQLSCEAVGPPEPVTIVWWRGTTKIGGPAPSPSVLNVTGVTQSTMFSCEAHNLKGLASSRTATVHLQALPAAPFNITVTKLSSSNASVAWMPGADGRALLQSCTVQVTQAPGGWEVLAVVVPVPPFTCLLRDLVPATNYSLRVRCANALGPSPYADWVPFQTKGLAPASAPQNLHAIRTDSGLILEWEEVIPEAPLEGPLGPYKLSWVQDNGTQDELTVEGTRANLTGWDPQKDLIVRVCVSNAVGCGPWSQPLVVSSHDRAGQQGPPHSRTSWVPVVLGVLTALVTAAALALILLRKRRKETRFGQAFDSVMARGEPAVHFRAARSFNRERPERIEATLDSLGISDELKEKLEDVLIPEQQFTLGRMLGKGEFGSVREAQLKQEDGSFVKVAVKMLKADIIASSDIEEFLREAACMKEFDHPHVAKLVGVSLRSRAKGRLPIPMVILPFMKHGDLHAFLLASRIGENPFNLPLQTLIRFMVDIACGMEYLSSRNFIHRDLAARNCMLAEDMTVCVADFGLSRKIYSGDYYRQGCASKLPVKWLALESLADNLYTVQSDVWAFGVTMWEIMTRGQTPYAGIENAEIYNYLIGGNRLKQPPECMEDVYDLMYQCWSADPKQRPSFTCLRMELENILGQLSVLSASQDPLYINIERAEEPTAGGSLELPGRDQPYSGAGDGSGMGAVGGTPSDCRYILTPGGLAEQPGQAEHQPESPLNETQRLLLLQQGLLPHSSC
Procedure: FIG. 9: Binding of anti-Tyro3 IgGs in living cells. HEK293 cells transfected to express recombinant human Tyro3 and HEK293 untransfected cells were stained with the Live-Dead NIR dye and either incubated with the TYRO 3-specific MAB859 monoclonal antibody, its isotype control (upper panels) or to individual anti-Tyro3 IgG (middle and bottom panels). IgG isotype control is IGX2656. […] Data were acquired using an ARIA III flow cytometer (Becton Dickinson) and analyzed using the Kaluza software (Beckman Coulter). Histograms shown are restricted to live cells that show a characteristic size and granulometry of HEK293 cells. Anti-Tyro3 IgG Tyro3-specific binding is shown by fluorescence intensity increase of Tyro3-transfected cells (black line) compared to untransfected cells (grey line).
To determine the individual IgG ability to further bind Tyro3-transfected cells than untransfected cells, 5^E5 untransfected and Tyro3-transfected cells were exposed to Live-Dead NIR dye (Life Technologies, #L10119) and 1 μg of each IgX in PBS for 30 minutes at 4° C. […] Cells were washed and PE fluorescence of at least 10,000 live cells was immediately recorded on an ARIA III flow cytometer (Beckton Dickinson) (middle and bottom panels of FIG. 9). IgG ability to bind overexpressed Tyro3 was determined with overlay histograms showing PE expression profile of untransfected and Tyro3-transfected cell. […]

[11] = target: T1, recombinant His-Strep tagged human …; test: BLI (Octet K2), IgG on AHC tips, hTyro3 ECD analyte, 1:1 global fit; kdis(1/s); kdis Error 1,11E-04
Procedure: as §1

[12] = target: T1, recombinant His-Strep tagged human …; test: BLI (Octet K2), IgG on AHC tips, hTyro3 ECD analyte, 1:1 global fit; KD Error 2,48E-09
Procedure: as §1

[13] = target: T1, recombinant His-Strep tagged human …; test: BLI (Octet K2), IgG on AHC tips, hTyro3 ECD analyte, 1:1 global fit; kon Error 9,23E+02
Procedure: as §1

B1: IgG2410 (antibody, V domains shown)
VH: EVQLVQSGADVKKPGASLTISCQASGYTFTDYWISWVRQKPGKGLEWMGQIVPRASRTNYGPSFQGHVTISADRSTATAYLQWRSLEASDTAMYYCVRPYFQTSGGTIPEYYQHWGPGTLVTVSS
VL: SYELTQPPSVSVSPGQTARITCSGDALPKKYAYWYQQKSGQAPVLVIYEDEKRASGIPERFSGSSSGTMATLTISGAQVEDEADYYCYSQERNGNYAVFGGGTKLTVL
notes: also called IGX2410
kon [1]: 120000 M⁻¹ s⁻¹ | kobs [2]: 0.0145 s⁻¹ | Kd [3]: 58.9 nM | koff [4]: 0.00704 s⁻¹ | binding result [5]: binds

B2: IgG2413 (antibody, V domains shown)
VH: EVQLVQSGADVKKPGASLTISCQASGYTFTDYWISWVRQKPGKGLEWMGRIHTYQSSTRYGPSFQGHVTISADRSTATAYLQWRSLEASDTAMYYCVRHHSTTTANPYSSWGPGTLVTVSS
VL: B1 VL with E51D, A54L, Q90T, R92I
notes: also called IGX2413
kobs [2]: 0.0342 s⁻¹ | EC50 (read off the curve) [6]: ~0.02 µg/mL | EC50 (read off the curve) [5]: ~0.02 µg/mL | koff [7]: 0.00987 s⁻¹ | Kd [8]: 101 nM | kon [9]: 97300 M⁻¹ s⁻¹

B3: IgG2717 (antibody, V domains shown)
VH: EVQLVQSGADVKKPGASLTISCQASGYTFTDYWISWVRQKPGKGLEWMGEIFLPPSTTVYGPSFQGHVTISADRSTATAYLQWRSLEASDTAMYYCVRQTRLTSGGTIPEYYQHWGPGTLVTVSS
VL: B1 VL with E51N, A54G, Q90K, E91S, R92P, N93E, A97M
notes: also called IGX2717
binding result [6]: binds | binding result [5]: binds | binding result [10]: binds

B4: IgG2412 (antibody, V domains shown)
VH: B1 VH with Q50R, V52R, R54L, A55L, R57H, N59M, P99S, Y100W, F101L, Q102A
VL: B1 VL with E51A, A54V, Q90A, E91S, R92A, A97R
notes: also called IGX2412
kobs [2]: 0.0175 s⁻¹ | koff [11]: 0.0091 s⁻¹ | Kd [12]: 135 nM | binding result [5]: binds | kon [13]: 67400 M⁻¹ s⁻¹
